Data set [1] can be described thus: cycloheximide chase, degradation rate. Conditions: glycan lost; control: LATS1-WT.
Data set [2] in a line: HA-Ub co-transfection, MG-132, anti-MYC IP, blot. Conditions: glycan lost; control: LATS1-WT.
Data set [3] in a line: Nub-Gal4 overexpression, wing area. The following applies: glycan lost; control: Nub > LATS1, standard medium.
The nature of data set [4]: Nub-Gal4 overexpression, wing area, no-glucose medium. The following applies: glycan lost; control: Nub > LATS1, glucose-free medium.

B1: LATS1: 4A (protein)
parent chain: MKRSEKPEGYRQMRPKTFPASNYTVSSRQMLQEIRESLRNLSKPSDAAKAEHNMSKMSTEDPRQVRNPPKFGTHHKALQEIRNSLLPFANETNSSRSTSEVNPQMLQDLQAAGFDEDMVIQALQKTNNRSIEAAIEFISKMSYQDPRREQMAAAAARPINASMKPGNVQQSVNRKQSWKGSKESLVPQRHGPPLGESVAYHSESPNSQTDVGRPLSGSGISAFVQAHPSNGQRVNPPPPPQVRSVTPPPPPRGQTPPPRGTTPPPPSWEPNSQTKRYSGNMEYVISRISPVPPGAWQEGYPPPPLNTSPMNPPNQGQRGISSVPVGRQPIIMQSSSKFNFPSGRPGMQNGTGQTDFMIHQNVVPAGTVNRQPPPPYPLTAANGQSPSALQTGGSAAPSSYTNGSIPQSMMVPNRNSHNMELYNISVPGLQTNWPQSSSAPAQSSPSSGHEIPTWQPNIPVRSNSFNNPLGNRASHSANSQPSATTVTAITPAPIQQPVKSMRVLKPELQTALAPTHPSWIPQPIQTVQPSPFPEGTASNVTVMPPVAEAPNYQGPPPPYPKHLLHQNPSVPPYESISKPSKEDQPSLPKEDESEKSYENVDSGDKEKKQITTSPITVRKNKKDEERRESRIQSYSPQAFKFFMEQHVENVLKSHQQRLHRKKQLENEMMRVGLSQDAQDQMRKMLCQKESNYIRLKRAKMDKSMFVKIKTLGIGAFGEVCLARKVDTKALYATKTLRKKDVLLRNQVAHVKAERDILAEADNEWVVRLYYSFQDKDNLYFVMDYIPGGDMMSLLIRMGIFPESLARFYIAELTCAVESVHKMGFIHRDIKPDNILIDRDGHIKLTDFGLCTGFRWTHDSKYYQSGDHPRQDSMDFSNEWGDPSSCRCGDRLKPLERRAARQHQRCLAHSLVGTPNYIAPEVLLRTGYTQLCDWWSVGVILFEMLVGQPPFLAQTPLETQMKVINWQTSLHIPPQAKLSPEASDLIIKLCRGPEDRLGKNGADEIKAHPFFKTIDFSSDLRQQSASYIPKITHPTDTSNFDPVDPDKLWSDDNEEENVNDTLNGWYKNGKHPEHAFYEFTFRRFFDDNGYPYNYPKPIEYEYINSQGSEQQSDEDDQNTGSEIKNRDLVYV
As to B1, the degradation_or_half_life entry in data set [1] is reported as “decreases”. Besides, the “other: ubiquitination” value in data set [2] is “decreases”.

B2: LATS1: LATS1-4A (protein)
parent chain: MKRSEKPEGYRQMRPKTFPASNYTVSSRQMLQEIRESLRNLSKPSDAAKAEHNMSKMSTEDPRQVRNPPKFGTHHKALQEIRNSLLPFANETNSSRSTSEVNPQMLQDLQAAGFDEDMVIQALQKTNNRSIEAAIEFISKMSYQDPRREQMAAAAARPINASMKPGNVQQSVNRKQSWKGSKESLVPQRHGPPLGESVAYHSESPNSQTDVGRPLSGSGISAFVQAHPSNGQRVNPPPPPQVRSVTPPPPPRGQTPPPRGTTPPPPSWEPNSQTKRYSGNMEYVISRISPVPPGAWQEGYPPPPLNTSPMNPPNQGQRGISSVPVGRQPIIMQSSSKFNFPSGRPGMQNGTGQTDFMIHQNVVPAGTVNRQPPPPYPLTAANGQSPSALQTGGSAAPSSYTNGSIPQSMMVPNRNSHNMELYNISVPGLQTNWPQSSSAPAQSSPSSGHEIPTWQPNIPVRSNSFNNPLGNRASHSANSQPSATTVTAITPAPIQQPVKSMRVLKPELQTALAPTHPSWIPQPIQTVQPSPFPEGTASNVTVMPPVAEAPNYQGPPPPYPKHLLHQNPSVPPYESISKPSKEDQPSLPKEDESEKSYENVDSGDKEKKQITTSPITVRKNKKDEERRESRIQSYSPQAFKFFMEQHVENVLKSHQQRLHRKKQLENEMMRVGLSQDAQDQMRKMLCQKESNYIRLKRAKMDKSMFVKIKTLGIGAFGEVCLARKVDTKALYATKTLRKKDVLLRNQVAHVKAERDILAEADNEWVVRLYYSFQDKDNLYFVMDYIPGGDMMSLLIRMGIFPESLARFYIAELTCAVESVHKMGFIHRDIKPDNILIDRDGHIKLTDFGLCTGFRWTHDSKYYQSGDHPRQDSMDFSNEWGDPSSCRCGDRLKPLERRAARQHQRCLAHSLVGTPNYIAPEVLLRTGYTQLCDWWSVGVILFEMLVGQPPFLAQTPLETQMKVINWQTSLHIPPQAKLSPEASDLIIKLCRGPEDRLGKNGADEIKAHPFFKTIDFSSDLRQQSASYIPKITHPTDTSNFDPVDPDKLWSDDNEEENVNDTLNGWYKNGKHPEHAFYEFTFRRFFDDNGYPYNYPKPIEYEYINSQGSEQQSDEDDQNTGSEIKNRDLVYV
With B2, the entries for the “other: Drosophila wing size” value in data set [3] and in data set [4] were “decreases” and “no change”, respectively.
